Reference: patent US20220220224A1 (Hoffmann-La Roche, published 2022)
Read-outs that look alike come from different tables or passages of the source.

Columns and labels:
[1] = target: T1, human FolR1 expressed on cells (HeLa, SKOV3, HT-29, transfected HEK cells) (human, UniProt P15328 25-234); assay: cell-based or functional assay
[2] = target: T2, recombinant biotinylated monomeric Fc fusion of cynomolgus Folate Receptor 1 (cy FolR1 ECD-AcTev-Fcknob-Avi … (cynomolgus, UniProt P0DOX5 223-449 = IgG part, biotin on the C-terminal Avi tag)); assay: SPR Biacore, affinity (monovalent), antibody captured via anti-Fab
T2 construct: also called cyFolR1-Fc; cyno FolR1
Procedure: (§1) All SPR experiments were performed on a Biacore T200 at 25° C. with HBS-EP as running buffer (0.01 M HEPES pH 7.4, 0.15 M NaCl, 3 mM EDTA, 0.005% Surfactant P20, Biacore, GE Healthcare). The molecules used for affinity and avidity determination are described in Table 45.
(§2) For affinity measurement, direct coupling of around 12000 resonance units (RU) of the anti-human Fab specific antibody (Fab capture kit, GE Healthcare) was performed on a CM5 chip at pH 5.0 using the standard amine coupling kit (GE Healthcare). Anti-FolR1 T cell bispecifics were captured at 20 nM with a flow rate of 10 μl/min for 40 sec, the reference flow cell was left without capture. […] The dissociation phase was monitored for 300 s and triggered by switching from the sample solution to HBS-EP. The chip surface was regenerated after every cycle using a double injection of 60 sec 10 mM Glycine-HCl pH 2.1. Bulk refractive index differences were corrected for by subtracting the response obtained on the reference flow cell 1. The affinity constants for the interactions were derived from the rate constants by fitting to a 1:1 Langmuir binding using the Bia Evaluation software (GE Healthcare). For low affinity kinetics with association and dissociation phases too fast to be fitted by the 1:1 Langmuir binding model, the steady state analysis model was applied using the Bia Evaluation software (GE Healthcare). The steady state analysis gives the KD of the binding reaction at equilibrium.

[3] = target: T3, recombinant biotinylated monomeric Fc fusion of human Folate Receptor 1 (huFolR1 ECD-AcTev-Fcknob-Avi tag … (human, UniProt P0DOX5 223-449 = IgG part, biotin on the C-terminal Avi tag)); assay: as above
T3 construct: also called huFolR1-Fc; human FolR1-Fc
Procedure: as §1, §2

[4] = target: T1, human FolR1 expressed on cells (HeLa, …); assay: cell-based or functional assay; remark: listed apart in the source
[5] = target: T3, recombinant biotinylated monomeric Fc …; assay: SPR Biacore, avidity (bivalent)
[6] = target: T2, recombinant biotinylated monomeric Fc …; assay: SPR Biacore, avidity (bivalent, apparent KD), antigen-Fc on SA chip
Procedure: as §1
(§3) Recombinant biotinylated monomeric Fc fusions of human, cynomolgus and murine Folate Receptor 1 (FolR1-Fc) were directly coupled on a SA chip using the standard coupling instruction (Biacore, GE Healthcare). The immobilization level was about 200-300 RU. […] The dissociation was monitored for 240 or 600 seconds. The chip surface was regenerated after every cycle using a double injection of 30 sec 10 mM Glycine-HCl pH 1.5. Bulk refractive index differences were corrected for by subtracting the response obtained on reference flow cell immobilized with recombinant biotinylated murine IL2R Fc fusion (unrelated Fc fused receptor). The binding curves resulting from the bivalent binding of the T cell bispecifics were approximated to a 1:1 Langmuir binding (even though it is a 1:2 binding) and fitted with that model to get an apparent KD representing the avidity of the bivalent binding. The apparent avidity constants for the interactions were derived from the rate constants of the fitting using the Bia Evaluation software (GE Healthcare).

[7] = target: T3, recombinant biotinylated monomeric Fc …; assay: as above
Procedure: as §1, §3

[8] = target: T4, recombinant biotinylated monomeric Fc fusion of human Folate Receptor 3 (hu FolR3 ECD-AcTev-Fcknob-Avi tag … (human, UniProt P0DOX5 223-449 = IgG part, biotin on the C-terminal Avi tag)); assay: SPR Biacore, single injection on immobilized antigen-Fc
T4 construct: also called FolR3-Fc
Procedure: as §1
(§4) First the anti-FolR1 TCBs were analyzed by single injections (Table 46) to characterize their crossreactivity (to human, murine and cyno FolR1) and specificity (to human FolR1, human FolR2, human FolR3). Recombinant biotinylated monomeric Fc fusions of human, cynomolgus and murine Folate Receptor 1 (FolR1-Fc) or human Folate Receptor 2 and 3 (FolR2-Fc, FolR3-Fc) were directly coupled on a SA chip using the standard coupling instruction (Biacore, Freiburg/Germany). The immobilization level was about 300-400 RU. The TCBs were injected for 60 seconds at a concentration of 500 nM.

[9] = target: T5, recombinant biotinylated monomeric Fc fusion of human Folate Receptor 2 (hu FolR2 ECD-AcTev-Fcknob-Avi tag … (human, UniProt P0DOX5 223-449 = IgG part, biotin on the C-terminal Avi tag)); assay: as above
T5 construct: also called FolR2-Fc
Procedure: as §1, §4

[10] = target: T6, recombinant biotinylated monomeric Fc fusion of murine Folate Receptor 1 (mu FolR1 ECD-AcTev-Fcknob-Avitag … (murine, UniProt P0DOX5 223-449 = IgG part, biotin on the C-terminal Avi tag)); assay: as above
T6 construct: also called muFolR1-Fc; murine FolR1
Procedure: as §1, §4

[11] = target: T3, recombinant biotinylated monomeric Fc …; assay: SPR Biacore, affinity (monovalent)
[12] = target: T2, recombinant biotinylated monomeric Fc …; assay: SPR Biacore, avidity set-up, steady state
Procedure: (§5) The avidity of the interaction between the anti-FolR1 IgGs or T cell bispecifics and the recombinant folate receptors was determined as described below (Table 41).
(§6) Recombinant biotinylated monomeric Fc fusions of human, cynomolgus and murine Folate Receptor 1 (FolR1-Fc) were directly coupled on a SA chip using the standard coupling instruction (Biacore, Freiburg/Germany). The immobilization level was about 300. […] The dissociation was monitored for 240 or 600 seconds. Bulk refractive index differences were corrected for by subtracting the response obtained on reference flow cell immobilized with recombinant biotinylated murine IL2 receptor Fc fusion. The binding curves resulting from the bivalent binding of the IgG or T cell bispecifics were approximated to a 1:1 Langmuir binding (even though it is a 1:2 binding) and fitted with that model to get an apparent KD representing the avidity of the bivalent binding. The apparent avidity constants for the interactions were derived from the rate constants of the fitting using the Bia Evaluation software (GE Healthcare). For low affinity kinetics with association and dissociation phases too fast to be fitted by the 1:1 Langmuir binding model, the steady state analysis model was applied using the Bia Evaluation software (GE Healthcare). The steady state analysis gives the KD of the binding reaction at equilibrium.

[13] = target: T3, recombinant biotinylated monomeric Fc …; assay: SPR Biacore, avidity set-up, steady state
Procedure: as §5, §6

[14] = target: T6, recombinant biotinylated monomeric Fc …; assay: SPR Biacore, single injection 500 nM on immobilized antigen-Fc
Procedure: Binding of FolR1 binders as IgG or in the T-cell bispecific format to different recombinant folate receptors (human FolR1, 2 and 3, murine FolR1 and cynomolgus FolR1; all as Fc fusions) was assessed by surface plasmon resonance (SPR). All SPR experiments were performed on a Biacore T200 at 25° C. with HBS-EP as running buffer (0.01 M HEPES pH 7.4, 0.15 M NaCl, 3 mM EDTA, 0.005% Surfactant P20, Biacore, Freiburg/Germany).
as §4, with “IgGs” for “TCBs”, “1)” for “46)”

[15] = target: T4, recombinant biotinylated monomeric Fc …; assay: SPR Biacore, single injection on immobilized antigen-Fc; remark: listed apart in the source
How it was run: (§7)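 Biacore T200 at 25 °C in HBS-EP (HEPES pH 7.4). Biotinylated FolR-Fc fusions captured on SA chip at about 300-400 RU. IgGs injected once at 500 nM for 60 s to assess cross-reactivity and specificity.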

[16] = target: T5, recombinant biotinylated monomeric Fc …; assay: as above; remark: listed apart in the source
How it was run: as §7

[17] = target: T1, human FolR1 expressed on cells (HeLa, …); assay: cell-based or functional assay; remark: listed apart in the source

T1 sequence (P15328 25-234): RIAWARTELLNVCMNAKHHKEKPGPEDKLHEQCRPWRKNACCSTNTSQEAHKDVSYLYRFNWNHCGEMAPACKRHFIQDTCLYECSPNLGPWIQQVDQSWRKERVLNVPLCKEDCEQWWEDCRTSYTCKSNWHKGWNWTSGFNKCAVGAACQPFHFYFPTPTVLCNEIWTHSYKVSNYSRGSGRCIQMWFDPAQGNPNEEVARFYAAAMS

B1: 16D5 G49S/S93A TCB (2+1 inverted, common light chain) (bispecific antibody, V domains shown)
VH 1: not shown
VL: QTVVTQEPSLTVSPGGTVTLTCGSSTGAVTTSNYANWVQQKPGQAPRGLIGGTNKRAPGTPARFSGSLLGGKAALTLSGVQPEDEAEYYCALWYANLWVFGGGTKLTVL
VH 2: not shown
EC50 of T-cell killing of Hela, 24 h [1]: 0.0023 nM
EC50 of T-cell killing of SKov-3, 24 h [1]: 0.43 nM
Kd [2]: 420 nM
koff [2]: 0.0086 s⁻¹
kon [2]: 20500 M⁻¹ s⁻¹
Kd [3]: 830 nM
koff [3]: 0.00837 s⁻¹
kon [3]: 10100 M⁻¹ s⁻¹
EC50 of T-cell killing of HT-29, 48 h [4]: 0.0993 nM
EC50 of T-cell killing of Hela, 48 h [4]: 0.0009 nM
EC50 of T-cell killing of SKov-3, 48 h [4]: 0.0959 nM
fold lower avidity than 16D5 WT (3 nM) [5]: 3 fold
Kd [6]: 20 nM
koff [6]: 0.00784 s⁻¹
kon [6]: 454000 M⁻¹ s⁻¹
Kd [7]: 10 nM
koff [7]: 0.00209 s⁻¹
kon [7]: 149000 M⁻¹ s⁻¹
binding result [8]: no binding (tested: 500 nM)
binding result [9]: no binding (tested: 500 nM)
binding result [10]: no binding (tested: 500 nM)
fold lower affinity than 16D5 WT (57 nM) [11]: 14.5 fold

B2: 16D5 IgG variant W96Y/K53A (HC/LC) (antibody, V domains shown)
VH: not shown
VL: QTVVTQEPSLTVSPGGTVTLTCGSSTGAVTTSNYANWVQQKPGQAPRGLIGGTNARAPGTPARFSGSLLGGKAALTLSGVQPEDEAEYYCALWYSNLWVFGGGTKLTVL
notes: IgG
Kd [12]: 660 nM
Kd [13]: 580 nM

B3: 20H7 IgG (antibody, V domains shown)
VH: QVQLVQSGAEVKKPGASVKVSCKASGYTFTSYYMHWVRQAPGQGLEWMGIINPSGGSTSYAQKFQGRVTMTRDTSTSTVYMELSSLRSEDTAVYYCARVGWYRWGYMDYWGQGTLVTVSS
VL: QAVVTQEPSLTVSPGGTVTLTCGSSTGAVTTSNYANWVQEKPGQAFRGLIGGTNKRAPGTPARFSGSLLGGKAALTLSGAQPEDEAEYYCALWYSNLWVFGGGTKLTVL
notes: human IgG1
binding result [14]: binds
binding result [15]: no binding (tested: 500 nM)
binding result [16]: no binding (tested: 500 nM)

B4: 9D11 TCB S100aA (CD3 deamidation variant) (bispecific antibody, human IgG1, kappa, L234A L235A)
heavy 1: not shown
heavy 2: QVQLVQSGAEVKKPGASVKVSCKASGYTFTSYYMHWVRQAPGQGLEWMGIINPSGGPTSYAQKFQGRVTMTRDTSTSTVYMELSSLRSEDTAVYYCARGDFAWLDYWGQGTLVTVSSASTKGPSVFPLAPSSKSTSGGTAALGCLVKDYFPEPVTVSWNSGALTSGVHTFPAVLQSSGLYSLSSVVTVPSSSLGTQTYICNVNHKPSNTKVDKKVEPKSCDKTHTCPPCPAPEAAGGPSVFLFPPKPKDTLMISRTPEVTCVVVDVSHEDPEVKFNWYVDGVEVHNAKTKPREEQYNSTYRVVSVLTVLHQDWLNGKEYKCKVSNKALGAPIEKTISKAKGQPREPQVCTLPPSRDELTKNQVSLSCAVKGFYPSDIAVEWESNGQPENNYKTTPPVLDSDGSFFLVSKLTVDKSRWQQGNVFSCSVMHEALHNHYTQKSLSLSPGK
light 1: not shown
light 2: QAVVTQEPSLTVSPGGTVTLTCGSSTGAVTTSNYANWVQEKPGQAFRGLIGGTNKRAPGTPARFSGSLLGGKAALTLSGAQPEDEAEYYCALWYSNLWVFGGGTKLTVLSSASTKGPSVFPLAPSSKSTSGGTAALGCLVKDYFPEPVTVSWNSGALTSGVHTFPAVLQSSGLYSLSSVVTVPSSSLGTQTYICNVNHKPSNTKVDKKVEPKSC
EC50 of T-cell killing of SKov-3, 24 h [17]: 0.00194 nM
